Experiments:
[1] = target: full-length PfMyoA heavy chain with C-terminal biotin tag and FLAG tag (P. falciparum) (UniProt Q8IDR3)
[2] = target: skeletal muscle actin (UniProt P68135)

“P. falciparum essential light chain (PfELC), untagged (from UniProt Q8IJM4 1-134) (natural protein)” was tested, and the in vitro motility speed of PfMyoA-MTIP with PfELC, no calcium [1] was 3.8 μm/s and the in vitro motility speed of PfMyoA-MTIP with PfELC, with calcium (100 μM) [1] was 3.8 μm/s.

In the case of “PF3D7_0107000, putative centrin-1 (PfPC1), N-terminal His6 tag (natural protein)”, the in vitro motility speed of PfMyoA-MTIP with PF3D7 0107000 added, no calcium [1] is reported as 1.5 μm/s.

“PF3D7_0627200, putative myosin light chain (PFF1320c) (from UniProt C6KTA8 1-139) (natural protein)” was tested, and the in vitro motility speed of PfMyoA-MTIP with PF3D7 0627200 added, no calcium [1] was 1.1 μm/s and the in vitro motility speed of PfMyoA-MTIP with PF3D7 0627200 added, with calcium [1] was 0.6 μm/s.

With “PfMD T417A (phospho-null at the TEDS site) (from UniProt Q8IDR3 1-768) (domain or fragment)” the Km (actin concentration at half-maximal activity) of the actin-activated ATPase, 30 °C, 5 mM NaCl [2] was 9.8 µM.

For “PfMD T417D (phosphomimic at the TEDS site) (from UniProt Q8IDR3 1-768) (domain or fragment)”, the Km (actin concentration at half-maximal activity) of the actin-activated ATPase, 30 °C, 5 mM NaCl [2] was 4.4 µM.

For “PfMD, PfMyoA motor domain (Met-1–Lys-768) with C-terminal FLAG tag (from UniProt Q8IDR3 1-768) (domain or fragment)”, the Km (actin concentration at half-maximal activity) of the actin-activated ATPase, 30 °C, 5 mM NaCl [2] was 13 µM.

With “T. gondii essential light chain TgELC1 (from UniProt A0A125YUL9 1-87) (natural protein)” the in vitro motility speed of PfMyoA-MTIP with TgELC1, no calcium [1] was 3.3 μm/s.

Reference: article PMC5702669
